Source: article PMC10397247
One block for each binder: values may come before it.

How the values were obtained:
Test in all cases: two-hybrid library CCmax;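 further: natural log of median RNA to DNA barcode read ratio; higher means stronger binding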
4H3446-AA = target: T1, 4H3446-AA
T1 chain: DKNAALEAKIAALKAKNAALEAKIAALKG

4H478-AA = target: T2, 4H478-AA; details: mean of both orientations
T2 chain: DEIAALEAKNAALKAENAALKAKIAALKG

4H3939-AA = target: T3, 4H3939-AA; details: mean of both orientations
T3 chain: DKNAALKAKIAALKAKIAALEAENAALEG

4H428-AA = target: T4, 4H428-AA; details: mean of both orientations
T4 chain: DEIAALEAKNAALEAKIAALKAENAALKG

4H675-AA = target: T5, 4H675-AA; details: mean of both orientations
T5 chain: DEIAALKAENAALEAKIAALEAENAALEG

4H3666-AA = target: T6, 4H3666-AA; details: mean of both orientations
T6 chain: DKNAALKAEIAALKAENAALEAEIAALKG

4H3920-AA = target: T7, 4H3920-AA; details: mean of both orientations
T7 chain: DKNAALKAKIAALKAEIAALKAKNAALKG

4H656-AA = target: T8, 4H656-AA; details: mean of both orientations
T8 chain: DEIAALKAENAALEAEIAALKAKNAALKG

4H497-AA = target: T9, 4H497-AA; details: mean of both orientations
T9 chain: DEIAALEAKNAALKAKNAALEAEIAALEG

4H3628-AA = target: T10, 4H3628-AA; details: mean of both orientations
T10 chain: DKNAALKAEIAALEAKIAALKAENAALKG

4H391-AA = target: T11, 4H391-AA; details: mean of both orientations
T11 chain: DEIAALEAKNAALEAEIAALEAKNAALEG

4H3591-AA = target: T12, 4H3591-AA; details: mean of both orientations
T12 chain: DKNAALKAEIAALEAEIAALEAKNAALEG

4H3709-AA = target: T13, 4H3709-AA; details: mean of both orientations
T13 chain: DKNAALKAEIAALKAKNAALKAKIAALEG

4H971-AA = target: T14, 4H971-AA; details: mean of both orientations
T14 chain: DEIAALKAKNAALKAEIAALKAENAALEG

4H_GCN4 = details: mean of both orientations
Chain of 4H_GCN4 (chain, as listed by the source): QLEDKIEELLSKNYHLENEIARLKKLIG

GCN2_T = details: mean of both orientations
4H347-AA = target: T15, 4H347-AA; details: mean of both orientations
T15 chain: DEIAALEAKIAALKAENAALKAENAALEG

4H3438-AA = target: T16, 4H3438-AA
T16 chain: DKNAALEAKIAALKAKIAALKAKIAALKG

4H56-AA = target: T17, 4H56-AA; details: mean of both orientations
T17 chain: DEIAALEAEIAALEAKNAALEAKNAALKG

4H_BCR = target: T18, 4H_BCR; details: mean of both orientations
T18 chain: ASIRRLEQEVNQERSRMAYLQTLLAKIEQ

4H_APH = target: T19, 4H_APH; details: mean of both orientations
T19 chain: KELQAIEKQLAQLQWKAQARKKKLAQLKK

4H406-AA = target: T20, 4H406-AA; details: mean of both orientations
T20 chain: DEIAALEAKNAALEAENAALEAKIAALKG

4H452-AA = target: T21, 4H452-AA; details: mean of both orientations
T21 chain: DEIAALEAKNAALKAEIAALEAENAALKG

4H881-AA = target: T22, 4H881-AA; details: mean of both orientations
T22 chain: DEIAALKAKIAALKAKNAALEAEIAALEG

4H3427-AA = target: T23, 4H3427-AA; details: mean of both orientations
T23 chain: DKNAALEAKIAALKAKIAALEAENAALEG

4H2883-AA = target: T24, 4H2883-AA; details: mean of both orientations
T24 chain: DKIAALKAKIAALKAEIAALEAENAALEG

4H342-AA = target: T25, 4H342-AA; details: mean of both orientations
T25 chain: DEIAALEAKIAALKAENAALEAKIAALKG

4H3343-AA = target: T26, 4H3343-AA; details: mean of both orientations
T26 chain: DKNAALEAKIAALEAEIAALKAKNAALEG

4H605-AA = target: T27, 4H605-AA; details: mean of both orientations
T27 chain: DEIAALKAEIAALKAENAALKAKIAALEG

4H3655-AA = target: T28, 4H3655-AA; details: mean of both orientations
T28 chain: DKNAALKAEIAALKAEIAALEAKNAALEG

4H3627-AA = target: T29, 4H3627-AA; details: mean of both orientations
T29 chain: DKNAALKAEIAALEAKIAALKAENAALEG

4H794-AA = target: T30, 4H794-AA; details: mean of both orientations
T30 chain: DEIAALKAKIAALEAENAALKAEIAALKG

4H3921-AA = target: T31, 4H3921-AA; details: mean of both orientations
T31 chain: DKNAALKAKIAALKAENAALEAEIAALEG

4H2754-AA = target: T32, 4H2754-AA; details: mean of both orientations
T32 chain: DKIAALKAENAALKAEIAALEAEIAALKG

4H317-AA = target: T33, 4H317-AA; details: mean of both orientations
T33 chain: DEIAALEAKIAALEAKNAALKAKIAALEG

4H3112-AA = target: T34, 4H3112-AA; details: mean of both orientations
T34 chain: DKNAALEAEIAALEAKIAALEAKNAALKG

4H48-AA = target: T35, 4H48-AA; details: mean of both orientations
T35 chain: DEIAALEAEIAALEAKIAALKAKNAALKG

4H2642-AA = target: T36, 4H2642-AA
T36 chain: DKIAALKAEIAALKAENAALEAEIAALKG

4H717-AA = target: T37, 4H717-AA; details: mean of both orientations
T37 chain: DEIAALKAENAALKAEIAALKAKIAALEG

4H2949-AA = target: T38, 4H2949-AA; details: mean of both orientations
T38 chain: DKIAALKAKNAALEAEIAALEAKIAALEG

4H429-AA = target: T39, 4H429-AA; details: mean of both orientations
T39 chain: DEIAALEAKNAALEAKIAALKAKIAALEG

4H3844-AA = target: T40, 4H3844-AA; details: mean of both orientations
T40 chain: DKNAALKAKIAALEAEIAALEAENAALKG

4H2944-AA = target: T41, 4H2944-AA; details: mean of both orientations
T41 chain: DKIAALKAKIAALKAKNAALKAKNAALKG

4H2729-AA = target: T42, 4H2729-AA; details: mean of both orientations
T42 chain: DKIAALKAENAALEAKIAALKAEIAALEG

4H454-AA = target: T43, 4H454-AA; details: mean of both orientations
T43 chain: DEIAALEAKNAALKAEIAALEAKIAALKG

4H335-AA = target: T44, 4H335-AA; details: mean of both orientations
T44 chain: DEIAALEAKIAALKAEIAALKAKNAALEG

4H993-AA = target: T45, 4H993-AA; details: mean of both orientations
T45 chain: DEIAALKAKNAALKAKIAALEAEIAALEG

4H678-AA = target: T46, 4H678-AA; details: mean of both orientations
T46 chain: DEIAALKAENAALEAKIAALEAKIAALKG

4H780-AA = target: T47, 4H780-AA; details: mean of both orientations
T47 chain: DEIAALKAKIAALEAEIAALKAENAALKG

4H906-AA = target: T48, 4H906-AA; details: mean of both orientations
T48 chain: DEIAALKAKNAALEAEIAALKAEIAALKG

4H3606-AA = target: T49, 4H3606-AA; details: mean of both orientations
T49 chain: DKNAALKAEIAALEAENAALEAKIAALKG

4H566-AA = target: T50, 4H566-AA; details: mean of both orientations
T50 chain: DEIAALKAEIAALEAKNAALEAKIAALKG

4H2837-AA = target: T51, 4H2837-AA; details: mean of both orientations
T51 chain: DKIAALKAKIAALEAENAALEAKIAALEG

interaction score (4H3446-AA): -0.619
interaction score (4H478-AA): -1.66
interaction score (4H3939-AA): -1.83
interaction score (4H428-AA): -0.892
interaction score (4H675-AA): -0.821
interaction score (4H3666-AA): 0.18
interaction score (4H3920-AA): -1.52
interaction score (4H656-AA): -0.701
interaction score (4H497-AA): -1.57
interaction score (4H3628-AA): -1.96
interaction score (4H391-AA): 0.726
interaction score (4H3591-AA): -0.816
interaction score (4H3709-AA): -0.0647
interaction score (4H971-AA): -1.14
B1: 4H3446-AA (peptide)
chain: DKNAALEAKIAALKAKNAALEAKIAALKG

interaction score (4H_GCN4): -1.68
interaction score (GCN2_T): -1
interaction score (4H347-AA): -0.916
interaction score (4H3438-AA): 0.922
interaction score (4H56-AA): 0.462
interaction score (4H_BCR): -1.47
interaction score (4H_APH): -1.5
interaction score (4H406-AA): -1.51
interaction score (4H452-AA): -0.716
B2: 4H3438-AA (peptide)
chain: DKNAALEAKIAALKAKIAALKAKIAALKG

interaction score (4H881-AA): 0.64
interaction score (4H3427-AA): -1.25
interaction score (4H2883-AA): -0.642
interaction score (4H342-AA): 1.85
interaction score (4H3343-AA): -1.7
interaction score (4H605-AA): 1.36
interaction score (4H3655-AA): -1.24
interaction score (4H3627-AA): -1.58
interaction score (4H794-AA): 0.96
interaction score (4H3921-AA): -1.11
interaction score (4H2754-AA): -1.08
interaction score (4H317-AA): 1.06
interaction score (4H3112-AA): -1.11
interaction score (4H48-AA): -0.661
interaction score (4H2642-AA): 2.07
interaction score (4H717-AA): -1.13
interaction score (4H2949-AA): -0.263
interaction score (4H429-AA): -0.542
interaction score (4H3844-AA): -1.28
interaction score (4H2944-AA): 0.299
interaction score (4H2729-AA): -0.868
interaction score (4H454-AA): 0.982
interaction score (4H335-AA): -1.02
interaction score (4H993-AA): 1.73
interaction score (4H678-AA): -1.06
interaction score (4H780-AA): -1.24
interaction score (4H906-AA): -1.72
interaction score (4H3606-AA): -0.298
interaction score (4H566-AA): 1.3
interaction score (4H2837-AA): -1
B3: 4H2642-AA (peptide)
chain: DKIAALKAEIAALKAENAALEAEIAALKG
